Reference: US20240124560A1

Tests used:
Experiment in all cases: cell-based or functional assay
[1] = target: HIV-1 Env of pseudovirus NIH-084_X1254 c3 (clade G) (HIV-1)
[2] = target: HIV-1 Env of NIH-114_T257.31 (HIV-1)
[3] = target: HIV-1 Env of pseudovirus NIH-003_SC422661.8 (HIV-1)
[4] = target: envelope protein of control pseudovirus NAC_AMLV
[5] = target: HIV-1 Env of pseudovirus NIH-016_SC05.8C11.2344 (HIV-1)
[6] = target: HIV-1 Env of isolate Du156.12 (HIV-1)
[7] = target: HIV-1 Env of NAC_BaL.26 (HIV-1)
[8] = target: HIV-1 Env of NIH-015_62357.14.D3.4589 (HIV-1)
[9] = target: HIV-1 Env of pseudovirus NIH-098_89.F1 2 25 (clade CD) (HIV-1)
[10] = target: HIV-1 Env of pseudovirus NIH-031_HIV-16055.2.3 (HIV-1)
[11] = target: HIV-1 Env of pseudovirus NIH-075_CNE8 (HIV-1)
[12] = target: HIV-1 Env of pseudovirus NIH-059_Q461ENVe2 (HIV-1)
[13] = target: HIV-1 Env of NAC_SS1196.1 (HIV-1)
[14] = target: HIV-1 Env of pseudovirus NIH-096_6952.v1.c20 (HIV-1)
[15] = target: HIV-1 Env of NIH-026_ZM135M.PL10a (HIV-1)
[16] = target: HIV-1 Env of NIH-076_CNE5 (HIV-1)
[17] = target: HIV-1 Env of pseudovirus NIH-030_HIV-0013095.2.11 (HIV-1)
[18] = target: HIV-1 Env of pseudovirus NIH-069_C1080.c03 (HIV-1)
[19] = target: HIV-1 Env of pseudovirus NIH-010_1054.07.TC4.1499 (HIV-1)
[20] = target: HIV-1 Env of NIH-005_TRO.11 (HIV-1)
[21] = target: HIV-1 Env of NIH-097_6811.v7.c18 (HIV-1)
[22] = target: HIV-1 Env of pseudovirus NIH-011_1056.10.TA11.1826 (HIV-1)
[23] = target: HIV-1 Env of NAC_92TH021 (HIV-1)
[24] = target: HIV-1 Env of isolate COT6, mutant D674T (HIV-1)
[25] = target: HIV-1 Env of NIH-072_R3265.c06 (HIV-1)
[26] = target: HIV-1 Env of isolate NIH-089_3016.v5.c45 (HIV-1)
[27] = target: HIV-1 Env of isolate COT6, mutant D674E (HIV-1)
[28] = target: HIV-1 Env of pseudovirus NIH-022_ZM233M.PB6 (HIV-1)
[29] = target: HIV-1 Env of pseudovirus NAC_92RW020 (HIV-1)
[30] = target: HIV-1 Env of isolate COT6 (wild-type) (HIV-1)
[31] = target: HIV-1 Env of pseudovirus NIH-097_6811.v7.c18 (HIV-1)
[32] = target: HIV-1 Env of pseudovirus NIH-023_ZM249M.PL1 (HIV-1)
[33] = target: HIV-1 Env of NIH-103_0815.v3.c3 (HIV-1)
[34] = target: HIV-1 Env of NIH-079_BJOX010000.06.2 (HIV-1)
[35] = target: HIV-1 Env of pseudovirus NIH-044_ZM247F.F7 (HIV-1)
[36] = target: HIV-1 Env of pseudovirus NIH-080_BJOX025000.01.1 (HIV-1)
[37] = target: HIV-1 Env of isolate NIH-098_89.F1 2 25 (HIV-1)

Substance: VRC01 (antibody)
- IC50 (µg/ml), TZM-bl cell neutralization assay, pseudovirus [1]: 0.039 µg/mL
- IC80 neutralization [2]: 6.57 µg/mL
- neutralization IC50 [3]: 0.124 µg/mL
- IC50 (µg/ml), TZM-bl cell neutralization assay, control pseudovirus [4]: > 50 µg/mL
- IC80 (µg/ml), TZM-bl pseudovirus neutralization [4]: > 50 µg/mL
- neutralization IC50 [5]: 0.508 µg/mL
- Fold change (IC50 wash)/(IC50 no wash) [6]: 1.5 fold
- IC50 (µg/ml), no wash [6]: 0.11 µg/mL
- IC50 (µg/ml), wash [6]: 0.16 µg/mL
- IC80 neutralization [7]: 0.037 µg/mL
- IC80 neutralization [8]: 6.95 µg/mL
- IC50 (µg/ml), TZM-bl cell neutralization assay, pseudovirus [9]: > 50 µg/mL
- neutralization IC50 [10]: 0.053 µg/mL
- neutralization IC50 [11]: 0.126 µg/mL
- neutralization IC50 [12]: 0.195 µg/mL
- IC80 neutralization [13]: 0.659 µg/mL
- neutralization IC50 [14]: 0.025 µg/mL
- IC80 neutralization [15]: 0.379 µg/mL
- IC80 neutralization [16]: 0.238 µg/mL
- neutralization IC50 [17]: 0.0002 µg/mL
- neutralization IC50 [18]: 1.4 µg/mL
- neutralization IC50 [19]: 0.909 µg/mL
- IC80 neutralization [20]: 0.912 µg/mL
- IC80 neutralization [21]: 0.558 µg/mL
- neutralization IC50 [22]: 0.372 µg/mL
- IC80 neutralization [23]: 1.31 µg/mL
- Fold increase in IC50 relative to wild-type COT6 [24]: 1 fold
- IC80 neutralization [25]: 0.502 µg/mL
- IC80 (µg/ml), TZM-bl pseudovirus neutralization [26]: 0.223 µg/mL
- Fold increase in IC50 relative to wild-type COT6 [27]: 1.2 fold
- neutralization IC50 [28]: 1.41 µg/mL
- neutralization IC50 [29]: 0.206 µg/mL
- Fold increase in IC50 (wild-type COT6, the reference) [30]: 1 fold
- neutralization IC50 [31]: 0.14 µg/mL
- neutralization IC50 [32]: 0.05 µg/mL
- IC80 neutralization [33]: 0.07 µg/mL
- IC80 neutralization [34]: 7.79 µg/mL
- neutralization IC50 [35]: 0.236 µg/mL
- neutralization IC50 [36]: 6.04 µg/mL
- IC80 (µg/ml), TZM-bl pseudovirus neutralization [37]: > 50 µg/mL
